The values below come from article PMC2767340.

Read-outs that look alike come from different tables or passages of the source.

By Kd is commonly meant the equilibrium constant for the complex coming apart. A higher Kd goes with a looser complex.

Test [1] deals with ΔEspP peptide labeled with carboxyfluorescein. Description: fluorescence polarisation. Background: In fluorescence polarisation assays a small probe gives low polarisation when free and higher when bound to something large.
Test [2] shares this target. The test can be described thus: fluorescence polarisation. This is another data set of the same source.
The target is the same in test [3]. The test can be described thus: fluorescence polarisation. The source holds these as a separate data set.
Test [4] has the same target. The test can be described thus: fluorescence polarisation. This is another data set of the same source.
Test [5] addresses T1, FtsY (Escherichia coli), P10121.
T1 chain: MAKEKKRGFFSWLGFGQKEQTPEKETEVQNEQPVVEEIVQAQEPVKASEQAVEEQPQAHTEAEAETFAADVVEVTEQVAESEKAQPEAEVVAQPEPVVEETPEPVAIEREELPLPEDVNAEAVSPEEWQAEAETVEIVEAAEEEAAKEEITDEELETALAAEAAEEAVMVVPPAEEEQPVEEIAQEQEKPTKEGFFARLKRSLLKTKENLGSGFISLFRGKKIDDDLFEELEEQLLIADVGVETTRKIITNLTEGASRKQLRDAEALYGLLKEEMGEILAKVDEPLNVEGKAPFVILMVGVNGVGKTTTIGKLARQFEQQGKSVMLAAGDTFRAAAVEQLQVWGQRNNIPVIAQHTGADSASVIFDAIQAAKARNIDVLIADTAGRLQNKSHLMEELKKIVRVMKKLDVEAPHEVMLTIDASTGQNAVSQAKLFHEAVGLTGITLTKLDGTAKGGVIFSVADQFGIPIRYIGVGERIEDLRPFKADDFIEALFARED
The test can be described thus: other fluorescence titration. The conditions noted are these: remark: other sources report otherwise.

B1: Ffh (natural protein)
chain: MFDNLTDRLSRTLRNISGRGRLTEDNVKDTLREVRMALLEADVALPVVREFINRVKEKAVGHEVNKSLTPGQEFVKIVRNELVAAMGEENQTLNLAAQPPAVVLMAGLQGAGKTTSVGKLGKFLREKHKKKVLVVSADVYRPAAIKQLETLAEQVGVDFFPSDVGQKPVDIVNAALKEAKLKFYDVLLVDTAGRLHVDEAMMDEIKQVHASINPVETLFVVDAMTGQDAANTAKAFNEALPLTGVVLTKVDGDARGGAALSIRHITGKPIKFLGVGEKTEALEPFHPDRIASRILGMGDVLSLIEDIESKVDRAQAEKLASKLKKGDGFDLNDFLEQLRQMKNMGGMASLMGKLPGMGQIPDNVKSQMDDKVLVRMEAIINSMTMKERAKPEIIKGSRKRRIAAGCGMQVQDVNRLLKQFDDMQRMMKKMKKGGMAKMMRSMKGMMPPGFPGR
For B1, the dissociation constant Kd in test [1] is 21.6 µM; in test [2], 1.5 µM; in test [3], 19.6 µM; in test [4], 5.5 µM.

B2: Ffh, P0AGD7 1-453 (natural protein)
chain: B1 chain
Take B2: in test [5], the fold change of the association rate with C12E8 against without (with 4.5S RNA) came to 70 fold, the fold change of the association rate with ΔEspP* against without (with 4.5S RNA) was above 40 fold, the fold change of the dissociation rate with C12E8 against without (with 4.5S RNA) came out at 23 fold and the fold change of the dissociation rate with ΔEspP* against without (with 4.5S RNA) worked out at 10 fold.
